Measurements taken from article PMC8131360, “Phospholipid translocation captured in a bifunctional membrane protein MprF” (Nature Communications, 2021).

Target: the molecule itself
Experiment: cryo-EM structure; full-length RtMprF purified in β-DDM or GDN, reconstituted with POPG and MSP1E3D1 (1:2:100) in lipid nanodiscs; 20 mM Tris-HCl pH 7.5, 300 mM NaCl; single-particle analysis, C2 symmetry imposed

B1: Multiple Peptide Resistance Factor from Rhizobium tropici (RtMprF) (natural protein, UniProt A0A6P1C618 1-869, looked up)
chain: MSSPIDLESADEELEERGGIVGLLNRYRALIVAVLTVAVFCIAAYAIYDLTTEVRYDDVVHALTTTKISSVLLALLFTGLSFASLIFYDQNALEYIGKRLPFPHVALTSFSAYAVGNTAGFGALSAGAIRYRAYTRLGLSPDDITRVIAFVTLAFGLGLASVGAMALLVIADEIGPLISVDGLWLRLIAIAILAALAFVVYAGRNGREVRIGPVAVRLPDSRTWSRQFLVTAFDIAASASVLYVLLPETSIGWPGFFAIYAIAVGLGVLSHVPAGFGVFETIIIAWLGSSVNEDAVLSSLVLYRVIYNVIPLVIAIAAISVAELRRFVDHPVASSMRRIGARLMPQLLSAFALLLGMMLVFSSVTPTPDHNLIVLSDYLPLSLVESAHFLSSLLGLAIIVAARGLSQRLDGAWWVSTFSALFALFFSLLKAIAIVEAGLLAFFVFSLVVSRRLFKRPASLLNQTLTAGWLTAIAVVCIGAIVVLFFVYRDVGYSNELWWQFEFADEAPRGLRAALGISIVSSAIAIFSLLRPATKRPEPVSDDAVARAVEIVRKQGVADANLVRMGDKSIMFSEKGDAFIMYGKQGRSWIALFDPVGPRQALPDLIWRFVETARAAGCRSVFYQISPALLSYCADAGLRAFKLGELAVVNLANFELKGGKWANLRQTASRAVRDGLEFAVIEPQDIPDVLDQLAHVSDTWLADHNAKEKSFSLGAFDPDYVCSQPVGVLKKDGKIVAFANILMTETKEEGSVDLMRFSPDAPKGSMDFLFVQILEYLKGEGFQRFNLGMAPLSGMSRRESAPVWDRVGGTVFEHGERFYNFKGLRAFKSKFHPEWQPRYLAVSGGVSPMIALMDATFLIGGGLKGVVRK
notes: MprF (mprF gene) from Rhizobium tropici, full-length protein of 869 amino acid residues; flippase domain (Subdomain 1 Leu24-Arg325, Subdomain 2 Ser334-Arg530) and synthase domain (Pro539-Gly860); also called RtMprF(DDM); RtMprF(GDN); source: E. coli C41(DE3), pET21b; purified (Ni-NTA in β-DDM or GDN) and reconstituted in POPG/MSP1E3D1 nanodiscs (Ni-NTA, SEC); also unpurified, in the E. coli …
stoichiometry N: 2
